The text below walks through data of US20200140568A1 (XUANZHU BIOPHARMACEUTICAL, published 2020).

The target in assay [1] is T1, HER2 extracellular domain (human, UniProt P04626 23-652).
T1 construct: extracellular domain; also called ErbB2; HER2 ECD
Description: ELISA, HER2 ECD coated on plate. (ELISA stands for enzyme-linked immunosorbent assay.)
Description: (§1) The binding potency of antibodies to the antigen HER2 was determined using an ELISA assay. The HER2 extracellular domain was coated overnight on 96-well plates by adding 0.2 ug/100 ul/well of HER2 extracellular domain solution. The plates were washed 6 times with PBS, and blocked with 3% BSA and incubated for 2 hours. The plates were again washed 6 times with PBS. After 1 hour of binding, the plates were washed 6 times with PBS. Horse radish peroxidase (HRP) conjugated secondary antibody was added and incubated for 1 hr. HRP substrate TMB was added to each well and luminescence was read on plate reader. The data were then fitted into 4-parameter sigmoidal curve to generate IC50. Each sample was run in triplicate.

Assay [2] addresses T1, HER2 extracellular domain. Nature of the assay: ELISA, HER2 ECD coated on plate; T12 is the weaker comparator.
Description: as §1

Changes are numbered by the printed parent chain.

B1: mAb T2 (antibody, human IgG1, kappa, V domains shown)
VH: EVQLVESGGGLVQPGGSLRLSCAASGFTFTDYTMDWVRQAPGKGLEWVADVNPNSGGSIYNQRFKGRFTLSVDRSKNTLYLQMNSLRAEDTAVYYCARNLGPSFYFDYWGQGTLVTVSS
VL: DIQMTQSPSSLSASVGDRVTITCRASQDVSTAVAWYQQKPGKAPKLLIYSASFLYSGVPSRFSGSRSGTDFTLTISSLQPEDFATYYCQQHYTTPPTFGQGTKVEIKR
notes: Pertuzumab heavy chain with a mutated trastuzumab light chain
For the molecule B1, the binding result in assay [1] is recorded as “binds”.

B2: mAb T43 (antibody, V domains shown)
VH: B1 VH with T30A, G57A
VL: DIQMTQSPSSLSASVGDRVTITCRASQDVSTAVAWYQQKPGKAPKLLIYSASFLYYGVPSRFSGSRSGTDFTLTISSLQPEDFATYYCQQHYTWPPTFGQGTKVEIKR
B2: the binding result in assay [1] is “binds”.

B3: mAb T4 (antibody, human IgG1, kappa, V domains shown)
VH: B1 VH
VL: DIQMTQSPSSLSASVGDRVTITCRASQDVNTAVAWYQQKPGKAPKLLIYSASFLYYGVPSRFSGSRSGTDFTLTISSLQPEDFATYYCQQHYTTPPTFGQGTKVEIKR
notes: as for B1
In the case of B3, the binding result in assay [1] is given as “binds”.

B4: mAb T7 (antibody, human IgG1, kappa, V domains shown)
VH: B1 VH
VL: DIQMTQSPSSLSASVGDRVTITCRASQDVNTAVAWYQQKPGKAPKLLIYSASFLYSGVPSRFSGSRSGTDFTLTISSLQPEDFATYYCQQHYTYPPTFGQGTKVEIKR
notes: as for B1
On to B4, for which the binding result in assay [1] is “binds”.

B5: mAb T8 (antibody, human IgG1, kappa, V domains shown)
VH: B1 VH
VL: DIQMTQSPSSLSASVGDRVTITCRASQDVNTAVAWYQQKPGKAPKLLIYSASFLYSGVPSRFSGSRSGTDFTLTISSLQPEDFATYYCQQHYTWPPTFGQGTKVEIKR
notes: as for B1
B5: in assay [1], the binding result is reported as “binds”.

B6: mAb T5 (antibody, human IgG1, kappa, V domains shown)
VH: B1 VH
VL: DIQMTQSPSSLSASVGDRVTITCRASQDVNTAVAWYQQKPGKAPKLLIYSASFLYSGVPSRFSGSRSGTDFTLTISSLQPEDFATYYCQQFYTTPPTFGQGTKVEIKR
notes: as for B1
On to B6, for which the binding result in assay [1] is “binds”.

B7: mAb T10 (antibody, human IgG1, kappa, V domains shown)
VH: B1 VH
VL: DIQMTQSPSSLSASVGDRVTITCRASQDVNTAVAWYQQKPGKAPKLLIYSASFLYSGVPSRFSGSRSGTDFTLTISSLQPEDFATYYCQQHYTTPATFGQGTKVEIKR
notes: as for B1
As to B7, in assay [1], the binding result is given as “binds”.

B8: mAb T3 (antibody, human IgG1, kappa, V domains shown)
VH: B1 VH
VL: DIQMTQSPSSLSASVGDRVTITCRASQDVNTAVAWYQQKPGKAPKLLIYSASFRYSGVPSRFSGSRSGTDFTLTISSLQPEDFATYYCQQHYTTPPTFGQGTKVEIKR
notes: as for B1
On to B8, for which, in assay [1], the binding result was “binds”.

B9: mAb T25 (antibody, V domains shown)
VH: B1 VH with G57A
VL: DIQMTQSPSSLSASVGDRVTITCKASQDVSIGVAWYQQKPGKAPKLLIYSASYRYTGVPSRFSGSGSGTDFTLTISSLQPEDFATYYCQQYYIYPYTFGQGTKVEIKR
notes: Residue 56 counted along the entry is also G
As for B9, in assay [1], the binding result was “binds”.

B10: mAb T26 (antibody, V domains shown)
VH: B1 VH with T30A, G57A
VL: B9 VL
Regarding B10, the binding result in assay [1] was “binds”.

B11: mAb T9 (antibody, human IgG1, kappa, V domains shown)
VH: B1 VH
VL: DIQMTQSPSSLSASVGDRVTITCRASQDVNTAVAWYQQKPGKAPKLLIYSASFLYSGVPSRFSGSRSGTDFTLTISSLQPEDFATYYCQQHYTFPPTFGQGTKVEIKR
notes: as for B1
B11: the binding result in assay [1] is “binds”.

B12: mAb T12 (antibody, V domains shown)
VH: not shown
VL: B9 VL
Turning to B12, the binding result in assay [2] is reported as “binds”.
